A short description of this series: self-splicing fitness, log relative to wild type (ln ratio); higher = more splicing; Tetrahymena group I intron in knt gene, E. coli kanamycin selection, DiMSum; sequences stand for … in CUCUCU…GGAGGGAAAAGUUAUCAGGCAUGCACCUGGUAGCUAGUCUUUAAACCAAUAGAUUGCAUCGGUUUAAAAGGCAAGACCGUCAAAUUGCGGGAAAGGGGUCAACAGCCGUUCAGUACCAAGUCUCAGGGGAAACUUUGAGAUGGCCUUGCAAAGGGUAUGGUAAUAAGCUGACGGACAUGGUCCUAACCACGCAGCCAAGUCCUAAGUCAACAGAUCUUCUGUUGAUAUGGAUGCAGUUCACAGACUAAAUGUCGGUCGGGGAAGAUGUAUUCUUCUCAUAAGAUAUAGUCGGACCUCUCCUUAAUGGGAGCUAGCGGAUGAAGUGAUGCAACACUGGAGCCGCUGGGAACUAAUUUGUAUGCGAAAGUAUAUUGAUUAGUUUUGGAGUACUCGUGGUCG
The method in brief: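 Library with all eight P1ex-region intron nucleotides randomised, intron inside the knt kanamycin-resistance gene on pET-22b(+), in E. coli BL21(DE3). Cells grew overnight at 37°C or 30°C on LB agar with or without 25 μg/mL kanamycin (plus 100 μg/mL carbenicillin, 50 μM IPTG, 0.2% rhamnose), in six replicate transformations. Pooled colonies were amplicon-sequenced on Illumina HiSeq 2500. DiMSum fitness is the error-weighted combination of wild-type-normalised replicate fold changes, kanamycin versus none.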

± gives the uncertainty stated by the source.

Data on 60 sequences can be found in the supplement of paper PMC7877785.

For the sequence ACUAAGCAAUAUUACGAGGC, the “self-splicing fitness (ln)” value is -3.03 ± 0.23 (30 °C) and -2.48 ± 0.25 (37 °C).

Consider ACUAAGCAAUAUUACGCAAU, for which the “self-splicing fitness (ln)” value is -2.04 ± 0.076 (30 °C) and -1.65 ± 0.086 (37 °C).

For ACUAAGCAAUAUUACGCACG, the “self-splicing fitness (ln)” value is, setting by setting: (30 °C) -1.68 ± 0.1; (37 °C) -0.457 ± 0.13.

On to ACUAAGCAAUAUUACGCGCU, for which the “self-splicing fitness (ln)” value (30 °C) is -0.324 ± 0.093 and the “self-splicing fitness (ln)” value (37 °C) is 0.362 ± 0.13.

As to ACUAAGCAAUAUUACGCGGU, the “self-splicing fitness (ln)” value (30 °C) is -2.65 ± 0.14 and the “self-splicing fitness (ln)” value (37 °C) was -2.59 ± 0.21.

As to ACUAAGCAAUAUUACGCUAC, the “self-splicing fitness (ln)” value runs as follows: (30 °C) -3.94 ± 0.23; (37 °C) -1.08 ± 0.18.

As to ACUAAGCAAUAUUACGCUAU, the “self-splicing fitness (ln)” value reads like this: (30 °C) -1.88 ± 0.072; (37 °C) -1.84 ± 0.1.

As for ACUAAGCAAUAUUACGGAAU, the “self-splicing fitness (ln)” value was -1.97 ± 0.1 (30 °C) and -2.04 ± 0.16 (37 °C).

As for ACUAAGCAAUAUUACGGAUA, the “self-splicing fitness (ln)” value (30 °C) was -2.38 ± 0.16 and the “self-splicing fitness (ln)” value (37 °C) was -2.54 ± 0.2.

With ACUAAGCAAUAUUACGGAUU, the “self-splicing fitness (ln)” value was -2.79 ± 0.14 (30 °C) and -1.1 ± 0.11 (37 °C).

Consider ACUAAGCAAUAUUACGGGCC, for which the “self-splicing fitness (ln)” value reads like this: (30 °C) -2.88 ± 0.2; (37 °C) -1.73 ± 0.21.

Turning to ACUAAGCAAUAUUACGGUGU, the “self-splicing fitness (ln)” value (30 °C) is -3.49 ± 0.15 and the “self-splicing fitness (ln)” value (37 °C) was -2.23 ± 0.12.

In the case of ACUAAGCAAUAUUACGUAAU, the “self-splicing fitness (ln)” value was -1.14 ± 0.073 (30 °C) and -0.739 ± 0.09 (37 °C).

Consider ACUAAGCAAUAUUACGUAUU, for which the “self-splicing fitness (ln)” value by setting is: (30 °C) -2.09 ± 0.082; (37 °C) -1.9 ± 0.11.

Turning to ACUAAGCAAUAUUACGUGCC, the “self-splicing fitness (ln)” value is -1.22 ± 0.13 (30 °C) and -0.754 ± 0.14 (37 °C).

For the sequence ACUAAGCAAUAUUACGUUAA, the “self-splicing fitness (ln)” value by setting is: (30 °C) -2.77 ± 0.14; (37 °C) -2.7 ± 0.18.

Consider ACUCAGCAAUAUUACGAAGG, for which the “self-splicing fitness (ln)” value is, setting by setting: (30 °C) -0.983 ± 0.1; (37 °C) -1.19 ± 0.14.

Turning to ACUCAGCAAUAUUACGACGG, the “self-splicing fitness (ln)” value is, setting by setting: (30 °C) -0.71 ± 0.072; (37 °C) 0.0441 ± 0.12.

Turning to ACUCAGCAAUAUUACGAGUA, the “self-splicing fitness (ln)” value is -2.23 ± 0.12 (30 °C) and -1.1 ± 0.1 (37 °C).

Regarding ACUCAGCAAUAUUACGAGUG, the “self-splicing fitness (ln)” value (30 °C) is -1.59 ± 0.081 and the “self-splicing fitness (ln)” value (37 °C) is -0.296 ± 0.11.

Regarding ACUCAGCAAUAUUACGCAAG, the “self-splicing fitness (ln)” value is, setting by setting: (30 °C) -1.89 ± 0.11; (37 °C) -0.159 ± 0.087.

Consider ACUCAGCAAUAUUACGCAGA, for which the “self-splicing fitness (ln)” value (30 °C) was -3.11 ± 0.2 and the “self-splicing fitness (ln)” value (37 °C) is -2.55 ± 0.22.

Regarding ACUCAGCAAUAUUACGCCAU, the “self-splicing fitness (ln)” value is -3.02 ± 0.17 (30 °C) and -2.28 ± 0.16 (37 °C).

As to ACUCAGCAAUAUUACGCCGA, the “self-splicing fitness (ln)” value is -3.36 ± 0.39 (30 °C) and -2.3 ± 0.28 (37 °C).

As for ACUCAGCAAUAUUACGCGAU, the “self-splicing fitness (ln)” value is -3.34 ± 0.16 (30 °C) and -2.18 ± 0.2 (37 °C).

Regarding ACUCAGCAAUAUUACGCGUU, the “self-splicing fitness (ln)” value is, setting by setting: (30 °C) -1.91 ± 0.055; (37 °C) -1.18 ± 0.072.

Turning to ACUCAGCAAUAUUACGGAAA, the “self-splicing fitness (ln)” value (30 °C) is -1.61 ± 0.14 and the “self-splicing fitness (ln)” value (37 °C) was -1.5 ± 0.16.

ACUCAGCAAUAUUACGGCAU: the “self-splicing fitness (ln)” value reads like this: (30 °C) -0.665 ± 0.063; (37 °C) -0.293 ± 0.067.

On to ACUCAGCAAUAUUACGGCUC, for which the “self-splicing fitness (ln)” value (30 °C) is -0.59 ± 0.09 and the “self-splicing fitness (ln)” value (37 °C) was -0.761 ± 0.12.

Consider ACUCAGCAAUAUUACGGGCG, for which the “self-splicing fitness (ln)” value was -0.574 ± 0.044 (30 °C) and 0.27 ± 0.062 (37 °C).

With ACUCAGCAAUAUUACGGUAU, the “self-splicing fitness (ln)” value runs as follows: (30 °C) -1.67 ± 0.057; (37 °C) -0.522 ± 0.093.

Consider ACUCAGCAAUAUUACGUCUC, for which the “self-splicing fitness (ln)” value is, setting by setting: (30 °C) -1.8 ± 0.072; (37 °C) -0.51 ± 0.083.

As for ACUCAGCAAUAUUACGUGUA, the “self-splicing fitness (ln)” value (30 °C) is -1.39 ± 0.1 and the “self-splicing fitness (ln)” value (37 °C) is -0.266 ± 0.096.

ACUCAGCAAUAUUACGUUAA: the “self-splicing fitness (ln)” value runs as follows: (30 °C) -2.35 ± 0.13; (37 °C) -1.41 ± 0.12.

As for ACUCAGCAAUAUUACGUUCA, the “self-splicing fitness (ln)” value (30 °C) is -1.36 ± 0.085 and the “self-splicing fitness (ln)” value (37 °C) is -0.842 ± 0.11.

In the case of ACUCAGCAAUAUUACGUUCC, the “self-splicing fitness (ln)” value (30 °C) was -2.15 ± 0.22 and the “self-splicing fitness (ln)” value (37 °C) is -0.606 ± 0.2.

Regarding ACUCAGCAAUAUUACGUUCG, the “self-splicing fitness (ln)” value is -0.678 ± 0.086 (30 °C) and -0.331 ± 0.11 (37 °C).

Regarding ACUCAGCAAUAUUACGUUGA, the “self-splicing fitness (ln)” value reads like this: (30 °C) -2.37 ± 0.15; (37 °C) -0.607 ± 0.14.

Regarding ACUGAGCAAUAUUACGAACA, the “self-splicing fitness (ln)” value is -3.84 ± 0.47 (30 °C) and -2.59 ± 0.48 (37 °C).

In the case of ACUGAGCAAUAUUACGAAUG, the “self-splicing fitness (ln)” value by setting is: (30 °C) -3.69 ± 0.4; (37 °C) -1.89 ± 0.22.

For the sequence ACUGAGCAAUAUUACGACAC, the “self-splicing fitness (ln)” value (30 °C) is -3.62 ± 0.2 and the “self-splicing fitness (ln)” value (37 °C) is -2.07 ± 0.24.

As to ACUGAGCAAUAUUACGACCG, the “self-splicing fitness (ln)” value was -1.3 ± 0.17 (30 °C) and -0.981 ± 0.23 (37 °C).

In the case of ACUGAGCAAUAUUACGACGC, the “self-splicing fitness (ln)” value (30 °C) is 0.0713 ± 0.15 and the “self-splicing fitness (ln)” value (37 °C) turned out to be 0.648 ± 0.2.

As for ACUGAGCAAUAUUACGAGAG, the “self-splicing fitness (ln)” value (30 °C) is -3.31 ± 0.18 and the “self-splicing fitness (ln)” value (37 °C) is -3.34 ± 0.32.

For ACUGAGCAAUAUUACGAGCA, the “self-splicing fitness (ln)” value by setting is: (30 °C) -2.63 ± 0.27; (37 °C) -1.42 ± 0.19.

As for ACUGAGCAAUAUUACGAGUC, the “self-splicing fitness (ln)” value (30 °C) is -3.18 ± 0.23 and the “self-splicing fitness (ln)” value (37 °C) is -3.2 ± 0.28.

With ACUGAGCAAUAUUACGAUAA, the “self-splicing fitness (ln)” value was -2.94 ± 0.26 (30 °C) and -2.75 ± 0.32 (37 °C).

As to ACUGAGCAAUAUUACGAUAU, the “self-splicing fitness (ln)” value reads like this: (30 °C) -4.44 ± 0.36; (37 °C) -2.8 ± 0.2.

ACUGAGCAAUAUUACGCACA: the “self-splicing fitness (ln)” value reads like this: (30 °C) -2.37 ± 0.4; (37 °C) -2.15 ± 0.29.

Consider ACUGAGCAAUAUUACGCAGA, for which the “self-splicing fitness (ln)” value (30 °C) was -2.38 ± 0.14 and the “self-splicing fitness (ln)” value (37 °C) is -1.25 ± 0.1.

For the sequence ACUGAGCAAUAUUACGCCAG, the “self-splicing fitness (ln)” value (30 °C) was -2.93 ± 0.49 and the “self-splicing fitness (ln)” value (37 °C) was -2.78 ± 0.47.

With ACUGAGCAAUAUUACGCCCA, the “self-splicing fitness (ln)” value by setting is: (30 °C) -2.64 ± 0.43; (37 °C) -2.15 ± 0.28.

In the case of ACUGAGCAAUAUUACGCGAA, the “self-splicing fitness (ln)” value was -3.01 ± 0.33 (30 °C) and -2.77 ± 0.36 (37 °C).

With ACUGAGCAAUAUUACGCGAG, the “self-splicing fitness (ln)” value by setting is: (30 °C) -2.27 ± 0.1; (37 °C) -1.11 ± 0.096.

For ACUGAGCAAUAUUACGCGCC, for the setting “30 °C”, the “self-splicing fitness (ln)” value was -2.73 ± 0.33.

ACUGAGCAAUAUUACGCUCC: the “self-splicing fitness (ln)” value is -2.62 ± 0.45 (30 °C) and -1.18 ± 0.27 (37 °C).

Consider ACUGAGCAAUAUUACGCUGG, for which the “self-splicing fitness (ln)” value is, setting by setting: (30 °C) -3.54 ± 0.2; (37 °C) -1.4 ± 0.2.

ACUGAGCAAUAUUACGGAGG: the “self-splicing fitness (ln)” value is, setting by setting: (30 °C) -2.97 ± 0.18; (37 °C) -2.76 ± 0.25.

Turning to ACUGAGCAAUAUUACGGCUC, the “self-splicing fitness (ln)” value (37 °C) was -1.73 ± 0.48.

For ACUGAGCAAUAUUACGGGAG, the “self-splicing fitness (ln)” value (30 °C) was -3.29 ± 0.2 and the “self-splicing fitness (ln)” value (37 °C) is -2.74 ± 0.2.
